The chains are these.
B1: SNX3 (parent)
chain: FLRQLPFRGDDGIFDDNFIEERKQ
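Also: lentivirally expressed fusions sorted by FACS into six bins by GFP to DsRed ratio, PSI derived from sequencing read proportions per bin multiplied by bin number.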

In this data set the parent is B1. Put plainly: protein stability index of a GFP-peptide fusion (GPS, HEK-293T) (PSI 1-6); higher = more stable. Conditions: c terminus: a fixed tail appended.
Take FWRQLPFRGDDGIFDDNFIEERKQ [L2W]: the protein stability index worked out at 3.02.
The same measure for FMRQLPFRGDDGIFDDNFIEERKQ [L2M]: 4.01; for FHRQLPFRGDDGIFDDNFIEERKQ [L2H]: 2.34; for FLRQLPFRGDDGIFDDNFIEMRKQ [E21M]: 2.81.
FLRQLPFRGDDGIFDDNFIESRKQ [E21S]: the protein stability index is 2.83.
Turning to FLRQLPFRGDDGIFDDNFIEQRKQ [E21Q], the protein stability index was 2.84.
The value for FLRQLPFRGDDGIFDDNFIEIRKQ [E21I] was 2.96.
Regarding FLRQLPFRGDDGIFDDNFIEECKQ [R22C], the protein stability index came to 2.85.
The same measure for FLRQLPFRGDDGIFDDNFIEEAKQ [R22A]: 3.56; for FLRQLPFRGDDGIFDDNFIEEDKQ [R22D]: 3.44; for FLRQLPFRGDDGIFDDNFIEEYKQ [R22Y]: 2.31.
The same measure for FLRQLCFRGDDGIFDDNFIEERKQ [P6C]: 2.49; for FLRQLKFRGDDGIFDDNFIEERKQ [P6K]: 2.88; for FLRQLGFRGDDGIFDDNFIEERKQ [P6G]: 3.45.
The same measure for FLRQLTFRGDDGIFDDNFIEERKQ [P6T]: 2.92; for FLRQLFFRGDDGIFDDNFIEERKQ [P6F]: 2.14; for FLRQLPFRGDDGQFDDNFIEERKQ [I13Q]: 4.03.
As to FLRQLPFRGDDGGFDDNFIEERKQ [I13G], the protein stability index was 3.52.
The value for FLRQLPFRGDDGYFDDNFIEERKQ [I13Y] was 3.83.
The value for FLRQLPFRGDDGSFDDNFIEERKQ [I13S] was 3.8.
With FLRQLPFRGDDGMFDDNFIEERKQ [I13M], the protein stability index was 3.03.
The same measure for FLRQLPFRGDDGTFDDNFIEERKQ [I13T]: 3.48; for FLRQLPTRGDDGIFDDNFIEERKQ [F7T]: 4.35; for FLRQLPDRGDDGIFDDNFIEERKQ [F7D]: 4.03.
Consider FLRQLPNRGDDGIFDDNFIEERKQ [F7N], for which the protein stability index was found to be 3.87.
In the case of FLRQLPMRGDDGIFDDNFIEERKQ [F7M], the protein stability index amounted to 3.32.
Consider FLRQLPRRGDDGIFDDNFIEERKQ [F7R], for which the protein stability index is 3.58.
The value for FLRQLPIRGDDGIFDDNFIEERKQ [F7I] was 2.83; that for FLRQLPFRGWDGIFDDNFIEERKQ [D10W] was 2.35; that for FLRQLPFRGVDGIFDDNFIEERKQ [D10V] was 3.72.
Take FLRQLPFRGFDGIFDDNFIEERKQ [D10F]: the protein stability index was 2.62.
The same measure for FLRQLPFRGIDGIFDDNFIEERKQ [D10I]: 2.03.
The same measure for FLRQLPFRGDDGIHDDNFIEERKQ [F14H]: 4.32.
Regarding FLRQLPFRGDDGIADDNFIEERKQ [F14A], the protein stability index came to 4.26.
The value for FLRQLPFRGDDGIVDDNFIEERKQ [F14V] was 3.81; that for FLRQLPFRGDDGIWDDNFIEERKQ [F14W] was 3.38.
The value for FLRQLPFRGDDGIKDDNFIEERKQ [F14K] was 4.23; that for FLRQLPFRGDDGIIDDNFIEERKQ [F14I] was 3.76; that for FLRQLPFRGDDGIFDDDFIEERKQ [N17D] was 3.83.
The same measure for FLRQLPFRGDDGIFDDIFIEERKQ [N17I]: 2.7.
FLRQLPFRGDDGIFDDCFIEERKQ [N17C]: the protein stability index amounted to 3.27.
With FLRQLPFRGDDGIFDDAFIEERKQ [N17A], the protein stability index was 2.54.
In the case of FLRQLPFRGDDGIFDDLFIEERKQ [N17L], the protein stability index was determined as 2.28.
For FLRQLPFRGDDGIFDDEFIEERKQ [N17E], the protein stability index is 4.18.
As for FLRQLPFRGDDGIFDDRFIEERKQ [N17R], the protein stability index is 2.61.
The same measure for FLRQLPFRGDDGIFDDYFIEERKQ [N17Y]: 2.38; for FLRQLPFRGDDGIFDDNFIIERKQ [E20I]: 1.67; for FLRQLPFRGDDGIFDDNFIQERKQ [E20Q]: 2.74.
The same measure for FLRQLPFRGDDGIFDDNFICERKQ [E20C]: 3.23.
The same measure for FLRQLPFPGDDGIFDDNFIEERKQ [R8P]: 3.75.
FLRVLPFRGDDGIFDDNFIEERKQ [Q4V]: the protein stability index stood at 3.07.
Consider FLRQLPFRGDDGIFDDNFIEERKE [Q24E], for which the protein stability index stood at 3.44.
For the variant FLRQLPFRGDDGIFDDNFIEERKG [Q24G], the protein stability index was 3.29.
The value for FLRQLPFRGDDGIFDDNFIEERKM [Q24M] was 2.56; that for FLRQLPFRGDDGIFDDNFIEERKH [Q24H] was 2.91.
The value for FLRQLPFRGDDSIFDDNFIEERKQ [G12S] was 3.21; that for FLRQLPFRGDDWIFDDNFIEERKQ [G12W] was 2.67; that for FLRQLPFRGDDAIFDDNFIEERKQ [G12A] was 3.79.
Take FLRQLPFRGDDGIFDDNHIEERKQ [F18H]: the protein stability index was 3.19.
As for FLRQLPFRGDDGIFDDNKIEERKQ [F18K], the protein stability index is 3.44.
In the case of FLRQLPFRGDDGIFDDNVIEERKQ [F18V], the protein stability index came to 3.67.
With FLRQLPFRGDDGIFDDNEIEERKQ [F18E], the protein stability index was 4.47.
The same measure for FLRQLPFRGDDGIFDDNFLEERKQ [I19L]: 3.
The same measure for FLRQLPFRGDDGIFDDNFNEERKQ [I19N]: 3.94.
With FLRQLPFRGDDGIFWDNFIEERKQ [D15W], the protein stability index turned out to be 2.89.
The value for FLRQLPFRGDDGIFVDNFIEERKQ [D15V] was 2.65; that for FLRQLPFRGDDGIFRDNFIEERKQ [D15R] was 2.71.
The same measure for FLRQLPFRGDDGIFEDNFIEERKQ [D15E]: 3.18; for FLRQLPFRGDDGIFYDNFIEERKQ [D15Y]: 2.43; for FLRQLPFRGDDGIFTDNFIEERKQ [D15T]: 3.94.
As to RLRQLPFRGDDGIFDDNFIEERKQ [F1R], the protein stability index was determined as 4.59.
The value for PLRQLPFRGDDGIFDDNFIEERKQ [F1P] was 4.99; that for FLRQDPFRGDDGIFDDNFIEERKQ [L5D] was 3.71.
For the variant FLRQPPFRGDDGIFDDNFIEERKQ [L5P], the protein stability index was 3.78.
In the case of FLRQEPFRGDDGIFDDNFIEERKQ [L5E], the protein stability index is 4.62.
The same measure for FLRQIPFRGDDGIFDDNFIEERKQ [L5I]: 2.18; for FLRQRPFRGDDGIFDDNFIEERKQ [L5R]: 3.99.
FLRQLPFRYDDGIFDDNFIEERKQ [G9Y]: the protein stability index is 2.53.
On to FLRQLPFRQDDGIFDDNFIEERKQ [G9Q], for which the protein stability index was found to be 2.98.
With FLTQLPFRGDDGIFDDNFIEERKQ [R3T], the protein stability index was found to be 3.17.
The value for FLAQLPFRGDDGIFDDNFIEERKQ [R3A] was 3.28; that for FLRQLPFRGDDGIFDYNFIEERKQ [D16Y] was 2.8; that for FLRQLPFRGDDGIFDCNFIEERKQ [D16C] was 3.05.
Turning to FLRQLPFRGDDGIFDMNFIEERKQ [D16M], the protein stability index was 2.95.
The value for FLRQLPFRGDDGIFDKNFIEERKQ [D16K] was 3.86; that for FLRQLPFRGDDGIFDQNFIEERKQ [D16Q] was 3; that for FLRQLPFRGDDGIFDGNFIEERKQ [D16G] was 3.18.
The same measure for FLRQLPFRGDDGIFDDNFIEERFQ [K23F]: 2.9; for FLRQLPFRGDDGIFDDNFIEERQQ [K23Q]: 3.21; for FLRQLPFRGDDGIFDDNFIEERHQ [K23H]: 3.38.
Take FLRQLPFRGDQGIFDDNFIEERKQ [D11Q]: the protein stability index amounted to 3.16.
In the case of FLRQLPFRGDEGIFDDNFIEERKQ [D11E], the protein stability index came out at 2.9.
Regarding FLRQLPFRGDYGIFDDNFIEERKQ [D11Y], the protein stability index amounted to 2.32.
The value for FLRQLPFRGDMGIFDDNFIEERKQ [D11M] was 3.05.
